# Patent US8357523B2, “Beta-glucosidase variant enzymes and related polynucleotides” (Codexis, Inc., priority 2009, dated 2013)
# Assay: High throughput cellobiose assay: fold improvement in cellobiase activity of CelA variants over a control enzyme (Tables 2A-2D, 3, 5, 6, 7)
# Format: biochemical
# Details: 3.3 g/l cellobiose, 50° C. and pH 6.5; compared to native CelA (SEQ ID NO: 4)
row,Molecule,Fold improvement over wildtype CelA
1,41 (protein) STAIAQEGAAPAAILHPEKWPRPATQRLIDPAVEKRVDALLKQLSVEEKVGQVIQGDIGTITPEDLRKYPLGSILAGGNSGPNGDDRAPPKEWLDLADAFYRVSLEKRPGHTPIPVLFGIDAVHGHGNIGSATIFPHNIALGATHDPELLRRIGEVTAVEMAATGIDWTFAPALSVVRDDRWGRTYEGFSEDPEIVAAYSAAIVEGVQGKFGSKDFMAPGRIVACAKHFLADGGTDQGRDQGDARISEDELIRIHNAGYPPAIDAGVLTVMASFSSWQGIKHHGHKQLLTDVLKGQMGFNGFIVGDWNAHDQVPGCTKFNCPTSLIAGLDMYMAADSWKQLYENTLAQVKDGTIPMARLDDAVRRILRVKVLAGLFEKPAPKDRPGLPGLETLGSPEHRAVGREAVRKSLVLLKNDKGTLPLSPKARVLVAGDGADNIGKQSGGWTISWQGTGNRNDEFPGATSILGGIRDAVADAGGSVEFDVAGQYKTKPDVAIVVFGEEPYAEFQGDVETLEYQPDQKQDLALLKKLKDQGIPVVAVFLSGRPMWVNPELNASDAFVAAWLPGTEGGGVADVLFTDKAGKVQHDFAGKLSYSWPRTAAQTTVNRGDADYNPLFAYGYGLTYKDKSKVGTLPEESGVPAEARQNAGIYFRAGALRLPGRFL,++ (++ = 2.1 to 2.6 fold improvement over native CelA (SEQ ID NO: 4))
2,44 (protein) STAIAQEGAAPAAILHPEKWPRPATQRLIDPAVEKRVDALLKQLSVEEKVGQVIQGDIGTITPEDLRKYPLGSILAGGNSGPNGDDRAPPKEWLDLADAFYRVSLEKRPGHTPIPVLFGIDAVHGHGNIGSATIFPHNIALGATHDPELLRRIGEVTAVEMAATGIDWTFAPALSVVRDDRWGRTYEGFSEDPEIVAAYSAAIVEGVQGKFGSKDFMAPGRIVASAKHFLADGGTDQGRDQGDARISEDELIRIHNAGYPPAIDAGVLTVMASFSSWQGIKHHGHKQLLTDVLKGQMGFNGFIVGDWNAHDQVPGCTKFNCPTSLIAGLDMYMAADSWKQLYENTLAQVKDGTIPMARLDDAVRRILRVKVLAGLFEKPAPKDRPGLPGLETLGSPEHRAVGREAVRKSLVLLKNDKGTLPLSPKARVLVAGDGADNIGKQSGGWTISWQGTGNRNDEFPGATSILGGIRDAVADAGGSVEYDVAGQYKTKPDVAIVVFGEEPYAEFQGDVETLEYQPDQKQDLALLKKLKDQGIPVVAVFLSGRPMWVNPELNASDAFVAAWLPGTEGGGVADVLFTDKAGKVQHDFAGKLSYSWPRTAAQTTVNRGDADYNPLFAYGYGLTYKDKSKVGTLPEESGVPAEARQNAGIYFRAGALRLPGRFL,+ (+ = 1.1 to 2.0 fold improvement over native CelA (SEQ ID NO: 4))
3,45 (protein) STAIAQEGAAPAAILHPEKWPRPATQRLIDPAVEKRVDALLKQLSVEEKVGQVIQGDIGTITPEDLRKYPLGSILAGGNSGPNGDDRAPPKEWLDLADAFYRVSLEKRPGHTPIPVLFGIDAVHGHGNIGSATIFPHNIALGATHDPELLRRIGEVTAVEMAATGIDWTFAPALSVVRDDRWGRTYEGFSEDPEIVAAYSAAIVEGVQGKFGSKDFMAPGRIVASAKHFLADGGTDQGRDQGDARISEDELIRIHNAGYPPAIDAGVLTVMASFSSWQGIKHHGHKQLLTDVLKGQMGFNGFIVGDWNAHDQVPGCTKFNCPTSLIAGLDMYMAADSWKQLYENTLAQVKDGTIPMARLDDAVRRILRVKVLAGLFEKPAPKDRPGLPGLETLGSPEHRAVGREAVRKSLVLLKNDKGTLPLSPKARVLVAGDGADNIGKQSGGWTISWQGTGNRNDEFPGATSILGGIRDAVADAGGSVEFDVAGNYKTKPDVAIVVFGEEPYAEFQGDVETLEYQPDQKQDLALLKKLKDQGIPVVAVFLSGRPMWVNPELNASDAFVAAWLPGTEGGGVADVLFTDKAGKVQHDFAGKLSYSWPRTAAQTTVNRGDADYNPLFAYGYGLTYKDKSKVGTLPEESGVPAEARQNAGIYFRAGALRLPGRFL,+ (+ = 1.1 to 2.0 fold improvement over native CelA (SEQ ID NO: 4))
4,43 (protein) STAIAQEGAAPAAILHPEKWPRPATQRLIDPAVEKRVDALLKQLSVEEKVGQVIQGDIGTITPEDLRKYPLGSILAGGNSGPNGDDRAPPKEWLDLADAFYRVSLEKRPGHTPIPVLFGIDAVHGHGNIGSATIFPHNIALGATHDPELLRRIGEVTAVEMAATGIDWTFAPALSVVRDDRWGRTYEGFSEDPEIVAAYSAAIVEGVQGKFGSKDFMAPGRIVASAKHFLADGGTDQGRDQGDARISEDELIRIHNAGYPPAIDAGVLTVMASFSSWQGIKHHGHKQLLTDVLKGQMGFNGFIVGDWNAHDQVPGCTKFNCPTSLIAGLDMYMAADSWKQLYENTLAQVKDGTIPMARLDDAVRRILRVKVLAGLFEKPAPKDRPGLPGLETLGSPEHRAVGREAVRKSLVLLKNDKGTLPLSPKARVLVAGDGADNIGKQSGGWTISWQGTGNRNDEFPGATSILQGIRDAVADAGGSVEFDVAGQYKTKPDVAIVVFGEEPYAEFQGDVETLEYQPDQKQDLALLKKLKDQGIPVVAVFLSGRPMWVNPELNASDAFVAAWLPGTEGGGVADVLFTDKAGKVQHDFAGKLSYSWPRTAAQTTVNRGDADYNPLFAYGYGLTYKDKSKVGTLPEESGVPAEARQNAGIYFRAGALRLPGRFL,+ (+ = 1.1 to 2.0 fold improvement over native CelA (SEQ ID NO: 4))
5,48 (protein) STAIAQEGAAPAAILHPEKWPRPATQRLIDPAVEKRVDALLKQLSVEEKVGQVIQGDIGTITPEDLRKYPLGSILAGGDSGPNGDDRAPPKEWLDLADAFYRVSLEKRPGHTPIPVLFGIDAVHGHGNIGSATIFPHNIALGATHDPELLRRIGEVTAVEMAATGIDWTFAPALSVVRDDRWGRTYEGFSEDPEIVAAYSAAIVEGVQGKFGSKDFMAPGRIVASAKHFLADGGTDQGRDQGDARISEDELIRIHNAGYPPAIDAGVLTVMASFSSWQGIKHHGHKQLLTDVLKGQMGFNGFIVGDWNAHDQVPGCTKFNCPTSLIAGLDMYMAADSWKQLYENTLAQVKDGTIPMARLDDAVRRILRVKVLAGLFEKPAPKDRPGLPGLETLGSPEHRAVGREAVRKSLVLLKNDKGTLPLSPKARVLVAGDGADNIGKQSGGWTISWQGTGNRNDEFPGATSILGGIRDAVADAGGSVEFDVAGQYKTKPDVAIVVFGEEPYAEFQGDVETLEYQPDQKQDLALLKKLKDQGIPVVAVFLSGRPMWVNPELNASDAFVAAWLPGTEGGGVADVLFTDKAGKVQHDFAGKLSYSWPRTAAQTTVNRGDADYNPLFAYGYGLTYKDKSKVGTLPEESGVPAEARQNAGIYFRAGALRLPGRFL,++ (++ = 2.1 to 2.6 fold improvement over native CelA (SEQ ID NO: 4))
6,46 (protein) STAIAQEGAAPAAILHPEKWPRPATQRLIDPAVEKRVDALLKQLSVEEKVGQVIQGDIGTITPEDLRKYPLGSILAGGNSGPNGDDRAPPKEWLDLADAFYRVSLEKRPGHTPIPVLFGIDAVHGHGNIGSATIFPHNIALGATHDPELLRRIGEVTAVEMAATGIDWTFAPALSVVRDDRWGRTYEGFSEDPEIVAAYSAAIVEGVQGKFGSKDFMAPGRIVASAKHFLADGGTDQGRDQGDARISEDELIRIHNAGYPPAIDAGVLTVMASFSSWQGIKHHGHKQLLTDVLKGQMGFNGFIVGDWNAHDQVPGCTKFNCPTSLIAGLDMYMAADSWKQLYENTLAQVKDGTIPMARLDDAVRRILRVKVLAGLFEKPAPKDRPGRPGLETLGSPEHRAVGREAVRKSLVLLKNDKGTLPLSPKARVLVAGDGADNIGKQSGGWTISWQGTGNRNDEFPGATSILGGIRDAVADAGGSVEFDVAGQYKTKPDVAIVVFGEEPYAEFQGDVETLEYQPDQKQDLALLKKLKDQGIPVVAVFLSGRPMWVNPELNASDAFVAAWLPGTEGGGVADVLFTDKAGKVQHDFAGKLSYSWPRTAAQTTVNRGDADYNPLFAYGYGLTYKDKSKVGTLPEESGVPAEARQNAGIYFRAGALRLPGRFL,+ (+ = 1.1 to 2.0 fold improvement over native CelA (SEQ ID NO: 4))
7,47 (protein) STAIAQEGAAPAAILHPEKWPRPATQRLIDPAVEKRVDALLKQLSVEEKVGQVIQGDIGTITPEDLRKYPLGSILAGGNSGPNGDDRAPPKEWLDLADAFYRVSLEKRPGHTPIPVLFGIDAVHGHGNIGSATIFPHNIALGATHDPELLRRIGEVTAVEMAATGIDWTFAPALSVVRDDRWGRTYEGFSEDPEIVAAYSAAIVEGVQGKFGSKDFMAPGRIVASAKHFLADGGTDQGRDQGDARISEDELIRIHNAGYPPAIDAGVLTVMASFSSWQGIKHHGHKQLLTDVLKGQMGFNGFIVGDWNAHDQVPGCTKFNCPTSLIAGLDMYMAADSWKQLYENTLAQVKDGTIPMARLDDAVRRILRVKVLAGLFEKPAPKDRPGLPGLETLGSPEHRAVGREAVRKSLVLLKNDKGTLPLSPKARVLVAGDGADNIGKQSGGWTISWQGTGNRNDEFPGATSILGGIRDAVAKAGGSVEFDVAGQYKTKPDVAIVVFGEEPYAEFQGDVETLEYQPDQKQDLALLKKLKDQGIPVVAVFLSGRPMWVNPELNASDAFVAAWLPGTEGGGVADVLFTDKAGKVQHDFAGKLSYSWPRTAAQTTVNRGDADYNPLFAYGYGLTYKDKSKVGTLPEESGVPAEARQNAGIYFRAGALRLPGRFL,+ (+ = 1.1 to 2.0 fold improvement over native CelA (SEQ ID NO: 4))
8,42 (protein) STAIAQEGAAPAAILHPEKWPRPATQRLIDPAVEKRVDALLKQLSVEEKVGQVIQGDIGTITPEDLRKYPLGSILAGGNSGPNGDDRAPPKEWLDLADAFYRVSLEKRPGHTPIPVLFGIDAVHGHGNIGSATIFPHNIALGATHDPELLRRIGEVTAVEMAATGIDWTFAPALSVVRDDRWGRTYEGFSEDPEIVAAYSAAIVEGVQGKFGSKDFMAPGRAVASAKHFLADGGTDQGRDQGDARISEDELIRIHNAGYPPAIDAGVLTVMASFSSWQGIKHHGHKQLLTDVLKGQMGFNGFIVGDWNAHDQVPGCTKFNCPTSLIAGLDMYMAADSWKQLYENTLAQVKDGTIPMARLDDAVRRILRVKVLAGLFEKPAPKDRPGLPGLETLGSPEHRAVGREAVRKSLVLLKNDKGTLPLSPKARVLVAGDGADNIGKQSGGWTISWQGTGNRNDEFPGATSILGGIRDAVADAGGSVEFDVAGQYKTKPDVAIVVFGEEPYAEFQGDVETLEYQPDQKQDLALLKKLKDQGIPVVAVFLSGRPMWVNPELNASDAFVAAWLPGTEGGGVADVLFTDKAGKVQHDFAGKLSYSWPRTAAQTTVNRGDADYNPLFAYGYGLTYKDKSKVGTLPEESGVPAEARQNAGIYFRAGALRLPGRFL,+ (+ = 1.1 to 2.0 fold improvement over native CelA (SEQ ID NO: 4))
